Tests used:
[1] = molecular target: huROR1-His (human ROR1 ECD AA30-406 with C-terminal His tag, made in house) (human) (UniProt Q01973); assay: Gator (BLI) Advanced Kinetics; antibody 30 nM, huROR1-His 480-7.5 nM
[2] = molecular target: human ROR1 on cells (full-length human ROR1 on huROR1-HEK293 cells; human ROR1 on A549 and HT-29 tumor cells) (human) (UniProt Q01973); assay: flow cytometry (FACS) on HT29 (HT-29) tumor cells, anti-human IgG-Fc secondary antibody, MFI
[3] = molecular target: human ROR1 on cells (full-length human ROR1 on huROR1-HEK293 cells; human ROR1 on A549 and HT-29 tumor cells) (human) (UniProt Q01973); assay: flow cytometry (FACS) on A549 tumor cells, anti-human IgG-Fc secondary antibody, MFI
[4] = molecular target: huROR1-His (human ROR1 ECD AA30-406 with C-terminal His tag, made in house) (human) (UniProt Q01973); assay: ELISA, huROR1-His coated plate, goat anti-human Fc-HRP, OD450
[5] = molecular target: human ROR1 on cells (full-length human ROR1 on huROR1-HEK293 cells; human ROR1 on A549 and HT-29 tumor cells) (human) (UniProt Q01973); assay: flow cytometry (FACS) on A549 tumor cells, anti-human IgG-Fc secondary antibody, MFI; remark: listed apart in the source
[6] = molecular target: human ROR1 on cells (full-length human ROR1 on huROR1-HEK293 cells; human ROR1 on A549 and HT-29 tumor cells) (human) (UniProt Q01973); assay: flow cytometry (FACS) on huROR1-HEK293 cells, anti-human IgG-Fc secondary antibody, MFI
[7] = molecular target: huROR1-His (human ROR1 ECD AA30-406 with C-terminal His tag, made in house) (human) (UniProt Q01973); assay: ELISA, huROR1-His coated plate, goat anti-human Fc-HRP, OD450; remark: listed apart in the source
[8] = molecular target: huROR1-His (human ROR1 ECD AA30-406 with C-terminal His tag, made in house) (human) (UniProt Q01973); assay: ELISA, huROR1-His coated at 2 µg/mL, goat anti-human Fc-HRP, OD450
[9] = molecular target: huROR1-His (human ROR1 ECD AA30-406 with C-terminal His tag, made in house) (human) (UniProt Q01973); assay: as above; remark: listed apart in the source
[10] = molecular target: huROR1-His (human ROR1 ECD AA30-406 with C-terminal His tag, made in house) (human) (UniProt Q01973); assay: Biacore T200 SPR; huROR1-His amine-coupled (~75 RU), antibody 4 and 20 nM as analyte, 1:1 Langmuir fit
[11] = molecular target: huROR1-His (human ROR1 ECD AA30-406 with C-terminal His tag, made in house) (human) (UniProt Q01973); assay: ELISA, huROR1-His coated plate, goat anti-human Fc-HRP, OD450; remark: listed apart in the source
[12] = molecular target: huROR1-His (human ROR1 ECD AA30-406 with C-terminal His tag, made in house) (human) (UniProt Q01973); assay: as above; remark: listed apart in the source
[13] = molecular target: huROR1-His (human ROR1 ECD AA30-406 with C-terminal His tag, made in house) (human) (UniProt Q01973); assay: as above; remark: listed apart in the source
[14] = molecular target: human ROR1 on cells (full-length human ROR1 on huROR1-HEK293 cells; human ROR1 on A549 and HT-29 tumor cells) (human) (UniProt Q01973); assay: flow cytometry (FACS) on huROR1-HEK293 cells, anti-human IgG-Fc secondary antibody, MFI; remark: listed apart in the source

Sequence of huROR1-His (human ROR1 ECD AA30-406 with C-terminal His tag, made in house) (human) (Q01973 30-406 limits assumed): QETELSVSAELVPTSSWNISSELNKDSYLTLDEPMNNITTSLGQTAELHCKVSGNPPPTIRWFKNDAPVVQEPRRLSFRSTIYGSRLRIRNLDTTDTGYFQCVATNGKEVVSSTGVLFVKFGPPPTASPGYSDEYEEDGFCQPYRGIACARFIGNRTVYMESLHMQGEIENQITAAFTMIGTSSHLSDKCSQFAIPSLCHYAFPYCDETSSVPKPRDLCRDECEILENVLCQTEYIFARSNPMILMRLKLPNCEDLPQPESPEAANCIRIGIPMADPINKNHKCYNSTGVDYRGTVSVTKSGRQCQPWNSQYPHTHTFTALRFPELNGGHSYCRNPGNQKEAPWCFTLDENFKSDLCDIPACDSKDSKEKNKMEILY
Sequence of human ROR1 on cells (full-length human ROR1 on huROR1-HEK293 cells; human ROR1 on A549 and HT-29 tumor cells) (human) (Q01973 30-937): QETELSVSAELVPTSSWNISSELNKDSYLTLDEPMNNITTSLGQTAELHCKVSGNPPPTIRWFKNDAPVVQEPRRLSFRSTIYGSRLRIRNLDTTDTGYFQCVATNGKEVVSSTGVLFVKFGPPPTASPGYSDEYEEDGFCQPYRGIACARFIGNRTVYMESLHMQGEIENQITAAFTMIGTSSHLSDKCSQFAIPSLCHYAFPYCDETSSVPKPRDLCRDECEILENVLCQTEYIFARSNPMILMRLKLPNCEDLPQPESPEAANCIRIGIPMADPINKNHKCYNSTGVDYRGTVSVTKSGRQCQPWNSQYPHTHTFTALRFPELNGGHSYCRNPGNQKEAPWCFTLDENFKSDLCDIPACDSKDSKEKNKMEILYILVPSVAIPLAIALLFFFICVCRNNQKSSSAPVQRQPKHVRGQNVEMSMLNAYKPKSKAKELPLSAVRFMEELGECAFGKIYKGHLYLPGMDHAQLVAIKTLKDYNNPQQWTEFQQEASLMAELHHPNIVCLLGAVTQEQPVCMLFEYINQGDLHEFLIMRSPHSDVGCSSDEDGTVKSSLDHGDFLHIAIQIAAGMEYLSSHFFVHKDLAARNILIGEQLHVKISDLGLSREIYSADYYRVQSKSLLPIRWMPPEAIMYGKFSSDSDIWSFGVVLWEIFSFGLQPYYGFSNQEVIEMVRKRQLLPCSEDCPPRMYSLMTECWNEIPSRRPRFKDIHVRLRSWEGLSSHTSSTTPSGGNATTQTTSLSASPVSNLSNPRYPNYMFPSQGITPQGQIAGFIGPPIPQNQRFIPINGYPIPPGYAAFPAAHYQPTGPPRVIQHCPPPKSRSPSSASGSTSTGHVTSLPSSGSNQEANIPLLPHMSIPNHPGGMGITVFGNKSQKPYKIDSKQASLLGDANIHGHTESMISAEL

- Kd [1]: 13.5 nM
- koff [1]: 0.00712 s⁻¹
- kon [1]: 529000 M⁻¹ s⁻¹
- EC50 (read off the curve) [2]: 20 ng/mL
- EC50 (read off the curve) [3]: 10 ng/mL
- EC50 [4]: 3.3 ng/mL
- EC50 (read off the curve) [5]: 3 ng/mL
- EC50 (read off the curve) [6]: 50 ng/mL
- EC50 [7]: 3.24 ng/mL
- EC50 [8]: 5.78 ng/mL
- EC50 [9]: 5.12 ng/mL
- Kd [10]: 1.98 nM
- koff [10]: 0.00137 s⁻¹
- kon [10]: 694000 M⁻¹ s⁻¹
- t 1/2 [10]: 8.41 min
- EC50 [11]: 3 ng/mL
- EC50 [12]: 3 ng/mL
- EC50 [13]: 2.56 ng/mL
- EC50 (read off the curve) [14]: 60 ng/mL
Substance: Cirmtuzumab (positive control anti-ROR1 antibody, clone number 99961.1)

Source: US20250177546A1, “ROR1-TARGETED BINDING MOLECULE AND USE THEREOF” (SANYOU BIOPHARMACEUTICALS CO., LTD., priority 2022, published 2025)
